According to patent US20150376275A1:

Assays:
[1] = target: KIR (KIR2D receptors; KIR2DL1 and 2/3) on the patients' NK cells; test: receptor occupancy on patients' NK cells by flow cytometry after a single i.v. dose of 0.003 mg/kg (AML dose-escalation trial)
[2] = target: KIR (KIR2D receptors; KIR2DL1 and 2/3) on the patients' NK cells; test: receptor occupancy on patients' NK cells by flow cytometry after a single i.v. dose of 0.0003 mg/kg (AML dose-escalation trial)

KIR occupancy [1]: 90%
KIR occupancy [2]: 50%
Substance: fully human anti-KIR2DL1, 2 and 3 monoclonal antibody 1-7F9
